Source: patent publication CN116410305A (ATTOGEN BIOMEDICAL SUZHOU INC LTD, dated 2023)

Molecular target: T1, 宫颈癌组织/细胞中内源的HPV16 E6蛋白 (HPV16, UniProt P03126 1-158)
T1 construct: Target detected by IHC or ICC in fixed tissue or cells; also called HPV16 E6致癌蛋白; HPV16 E6癌蛋白
Assay: IHC on FFPE cervical cancer tissue array, clone supernatant

T1 sequence (P03126 whole entry): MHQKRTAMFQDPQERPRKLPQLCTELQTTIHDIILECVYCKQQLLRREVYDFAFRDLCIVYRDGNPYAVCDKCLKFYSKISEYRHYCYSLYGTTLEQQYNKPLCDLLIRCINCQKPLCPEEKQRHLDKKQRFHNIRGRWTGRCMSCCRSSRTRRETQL

B1: 抗HPV16 E6单克隆抗体A3E1 (antibody, V domains shown)
VH: QSLEESGGGLVTPGGTLTLTCTASGIDFSANYWIYWVRQTPGKGLEWIASIFTSDGETHYATWAKGRFTISKTSSTTVTLQMTSLTAADTATYFCATGGALWGPGTLVTVSS
VL: DIVMTQTPASVEAAVGGTVTIKCQASEDIENYLAWYQQKPGQPPKRLIYKASTLASGVPSRFKGSGSGTDFTLTISDLECADAATYYCQSNYYNFGSNYGSFAFGGGTEVVVK
notes: Rabbit monoclonal IgG from single B cell cloning, tested as B cell clone supernatant and as recombinant IgG from CHO cells; also called 克隆上清A3E1; 抗体克隆A3E1
  binding result: binds
